Laboratory results from publication PMC8244301.

Experiments:
[1] = target: Truncated GG-SpaB (GG-SpaB_(C-trun)) protein (residues 31-184) (Lactobacillus rhamnosus GG); assay: BLI; details: group
[2] = target: Full-length L. rhamnosus GG SpaB (GG-SpaBFL) protein (residues 33-205) (Lactobacillus rhamnosus GG); assay: BLI; details: group
[3] = target: Truncated L. rhamnosus GG SpaB (GG-SpaBC-trun) protein (residues 31-184) (Lactobacillus rhamnosus GG); assay: BLI; GG-SpaB protein (10 uM) immobilised on aminopropylsilane (APS) biosensors; mucin Type II (~19.5-312 nM) as analyte; PBS (10 mM sodium phosphate pH 7.4, 137 mM NaCl, 2.7 mM KCl), 30 C; ~600 s association, ~900 s dissociation; 1:1 binding fit; in duplicate
[4] = target: Full-length L. rhamnosus GG SpaB (GG-SpaBFL) protein (residues 33-205) (Lactobacillus rhamnosus GG); assay: as above

Substance | Kd [1] [nM] | Kd [2] [nM] | Kd [3] [nM] | koff [3] [s⁻¹] | kon [3] [M⁻¹ s⁻¹] | Kd [4] [nM] | koff [4] [s⁻¹] | kon [4] [M⁻¹ s⁻¹]
porcine gastric mucin (Type II) | 2.6 | 0.3 | – | – | – | – | – | –
porcine gastric mucin (Type II) (Sigma-Aldrich) | – | – | 2.55 | 6.86e-05 | 26300 | 0.306 | 1.09e-05 | 35300
